Key:
She2p = She2p (Saccharomyces cerevisiae, UniProt P36068 1-246); experiment: filter binding; +++ reference; EMSA: 20 mM HEPES pH 7.8, 200 mM NaCl, 2 mM MgCl2, 2 mM DTT, 4% glycerol, 30 or 100 ug/ml yeast tRNA, 5 nM RNA, 20 C; filter binding: 20 mM HEPES pH 7.4-7.5 (7.9 with She3p), 150 mM NaCl, 2 mM MgCl2, 2 mM DTT, 30 ug/ml yeast tRNA, 0.5 nM RNA; pull-down: HNMD buffer, 4 C; conditions: protein: recombinant; tags: GST tag (PreScission-cleaved); chain copies: 4; label: 32P; stem-loop
Puf6p = Puf6p (Saccharomyces cerevisiae, UniProt Q04373 2-656); experiment: EMSA; EMSA: 20 mM HEPES pH 7.8, 200 mM NaCl, 2 mM MgCl2, 2 mM DTT, 4% glycerol, 30 or 100 ug/ml yeast tRNA, 5 nM RNA, 20 C; filter binding: 20 mM HEPES pH 7.4-7.5 (7.9 with She3p), 150 mM NaCl, 2 mM MgCl2, 2 mM DTT, 30 ug/ml yeast tRNA, 0.5 nM RNA; pull-down: HNMD buffer, 4 C; conditions: protein: recombinant; tags: GST tag (cleaved for EMSA; retained in GST pull-downs); label: 32P; stem-loop
She2p (ΔhE);She3p = She2p (ΔhE);She3p (Saccharomyces cerevisiae;Saccharomyces …, UniProt P36068;P38272 1-246;1-425, del174-183|); experiment: EMSA; no mobility shift; EMSA: 20 mM HEPES pH 7.8, 200 mM NaCl, 2 mM MgCl2, 2 mM DTT, 4% glycerol, 30 or 100 ug/ml yeast tRNA, 5 nM RNA, 20 C; filter binding: 20 mM HEPES pH 7.4-7.5 (7.9 with She3p), 150 mM NaCl, 2 mM MgCl2, 2 mM DTT, 30 ug/ml yeast tRNA, 0.5 nM RNA; pull-down: HNMD buffer, 4 C; conditions: protein: recombinant;recombinant; tags: GST tag (PreScission-cleaved);C-terminal His6; chain copies: 4;2; label: 32P; stem-loop
She2p (ΔC);She3p = She2p (ΔC);She3p (Saccharomyces cerevisiae;Saccharomyces …, UniProt P36068;P38272 1-240;1-425, |); experiment: EMSA; She3p 25 nM; at least 25 nM She2p(ΔC) required; EMSA: 20 mM HEPES pH 7.8, 200 mM NaCl, 2 mM MgCl2, 2 mM DTT, 4% glycerol, 30 or 100 ug/ml yeast tRNA, 5 nM RNA, 20 C; filter binding: 20 mM HEPES pH 7.4-7.5 (7.9 with She3p), 150 mM NaCl, 2 mM MgCl2, 2 mM DTT, 30 ug/ml yeast tRNA, 0.5 nM RNA; pull-down: HNMD buffer, 4 C; conditions: protein: recombinant;recombinant; tags: GST tag (PreScission-cleaved);C-terminal His6; label: 32P; stem-loop
She2p;She3p = She2p;She3p (Saccharomyces cerevisiae;Saccharomyces …, UniProt P36068;P38272 1-246;1-425, |); experiment: EMSA; She3p constant 25 nM, She2p varied; EMSA: 20 mM HEPES pH 7.8, 200 mM NaCl, 2 mM MgCl2, 2 mM DTT, 4% glycerol, 30 or 100 ug/ml yeast tRNA, 5 nM RNA, 20 C; filter binding: 20 mM HEPES pH 7.4-7.5 (7.9 with She3p), 150 mM NaCl, 2 mM MgCl2, 2 mM DTT, 30 ug/ml yeast tRNA, 0.5 nM RNA; pull-down: HNMD buffer, 4 C; conditions: protein: recombinant;recombinant; tags: GST tag (PreScission-cleaved);C-terminal His6; chain copies: 4;2; label: 32P; stem-loop
She2p;She3p (R341E) = She2p;She3p (R341E) (Saccharomyces cerevisiae;Saccharomyces …, UniProt P36068;P38272 1-246;1-425, |R341E); experiment: EMSA; synergism +++; EMSA: 20 mM HEPES pH 7.8, 200 mM NaCl, 2 mM MgCl2, 2 mM DTT, 4% glycerol, 30 or 100 ug/ml yeast tRNA, 5 nM RNA, 20 C; filter binding: 20 mM HEPES pH 7.4-7.5 (7.9 with She3p), 150 mM NaCl, 2 mM MgCl2, 2 mM DTT, 30 ug/ml yeast tRNA, 0.5 nM RNA; pull-down: HNMD buffer, 4 C; conditions: protein: recombinant;recombinant; tags: GST tag (PreScission-cleaved);C-terminal His6; chain copies: 4;2; label: 32P; stem-loop
[1] = target: She2p (E183A D184A G185A);She3p (Saccharomyces cerevisiae;Saccharomyces …, UniProt P36068;P38272 1-246;1-425, E183A;D184A;G185A|); experiment: as above; conditions: protein: recombinant;recombinant; tags: GST tag (PreScission-cleaved);C-terminal His6; chain copies: 4;2; label: 32P; stem-loop
[2] = target: She2p (T191A D192A);She3p (Saccharomyces cerevisiae;Saccharomyces …, UniProt P36068;P38272 1-246;1-425, T191A;D192A|); experiment: as above; conditions: protein: recombinant;recombinant; tags: GST tag (PreScission-cleaved);C-terminal His6; chain copies: 4;2; label: 32P; stem-loop
[3] = target: She2p;She3p (S343E S361E) (Saccharomyces cerevisiae;Saccharomyces …, UniProt P36068;P38272 1-246;1-425, |S343E;S361E); experiment: as above; conditions: protein: recombinant;recombinant; tags: GST tag (PreScission-cleaved);C-terminal His6; chain copies: 4;2; label: 32P; stem-loop
Chain of She2p;She3p (S343E S361E) (P36068 whole entry, stated change not applied, one chain of several): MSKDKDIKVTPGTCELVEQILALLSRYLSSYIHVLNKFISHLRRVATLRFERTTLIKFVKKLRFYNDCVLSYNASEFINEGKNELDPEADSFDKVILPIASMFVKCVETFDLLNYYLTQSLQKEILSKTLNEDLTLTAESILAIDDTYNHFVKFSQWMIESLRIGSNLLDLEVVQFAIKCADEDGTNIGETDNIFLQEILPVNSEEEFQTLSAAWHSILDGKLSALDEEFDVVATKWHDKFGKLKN

Chain of She2p (P36068 whole entry): as the sequence (P36068 whole entry, stated change not applied, one chain of several) above
Chain of She2p;She3p (R341E) (P36068 whole entry, stated change not applied, one chain of several): as above
Chain of She2p;She3p (P36068 whole entry, one chain of several): as the sequence (P36068 whole entry, stated change not applied, one chain of several) above
Chain of She2p (E183A D184A G185A);She3p (P36068 whole entry E183A/D184A/G185A, one chain of several): as the sequence (P36068 whole entry, stated change not applied, one chain of several) above, with E183A, D184A, G185A counted along it
Chain of She2p (ΔhE);She3p (P36068 other isoform, or with tags, fused parts or gaps del174-183| | mutant): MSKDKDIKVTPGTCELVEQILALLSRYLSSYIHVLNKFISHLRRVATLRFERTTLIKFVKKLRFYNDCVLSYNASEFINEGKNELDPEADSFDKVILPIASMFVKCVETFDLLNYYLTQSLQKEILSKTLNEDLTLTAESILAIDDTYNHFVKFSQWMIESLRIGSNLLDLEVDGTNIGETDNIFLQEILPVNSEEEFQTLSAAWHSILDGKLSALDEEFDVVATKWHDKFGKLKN
Chain of She2p (ΔC);She3p (P36068 1-240, stated change not applied, one chain of several): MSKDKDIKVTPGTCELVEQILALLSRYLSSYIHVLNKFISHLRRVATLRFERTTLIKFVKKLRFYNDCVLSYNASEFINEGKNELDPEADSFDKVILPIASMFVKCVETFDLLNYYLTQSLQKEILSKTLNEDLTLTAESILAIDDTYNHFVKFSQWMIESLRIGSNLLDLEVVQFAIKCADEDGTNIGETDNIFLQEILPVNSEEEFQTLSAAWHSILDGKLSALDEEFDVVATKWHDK
Chain of Puf6p (Q04373 2-656): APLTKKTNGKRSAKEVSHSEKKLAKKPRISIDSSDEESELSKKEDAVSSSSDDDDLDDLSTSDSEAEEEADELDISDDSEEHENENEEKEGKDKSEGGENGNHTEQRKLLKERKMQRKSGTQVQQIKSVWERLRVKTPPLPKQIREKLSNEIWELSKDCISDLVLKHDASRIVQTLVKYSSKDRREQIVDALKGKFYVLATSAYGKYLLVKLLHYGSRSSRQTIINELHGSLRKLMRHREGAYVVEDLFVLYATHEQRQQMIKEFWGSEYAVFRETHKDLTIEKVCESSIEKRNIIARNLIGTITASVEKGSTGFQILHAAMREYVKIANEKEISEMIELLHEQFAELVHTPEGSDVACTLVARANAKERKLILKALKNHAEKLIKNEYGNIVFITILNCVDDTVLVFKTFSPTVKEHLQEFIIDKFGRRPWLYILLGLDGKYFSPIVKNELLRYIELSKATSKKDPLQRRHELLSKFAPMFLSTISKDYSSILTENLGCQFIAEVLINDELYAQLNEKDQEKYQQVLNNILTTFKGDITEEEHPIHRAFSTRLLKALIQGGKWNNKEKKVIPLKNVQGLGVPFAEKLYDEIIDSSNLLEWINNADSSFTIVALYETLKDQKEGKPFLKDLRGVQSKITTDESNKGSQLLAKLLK
Chain of She2p (T191A D192A);She3p (P36068 whole entry T191A/D192A, one chain of several): as the sequence (P36068 whole entry, stated change not applied, one chain of several) above, with T191A, D192A counted along it

B1: ASH1 E3-118 (structured_RNA)
RNA: GAGACAGUAGAGAAUUGAUACAUGGAUAACUGAAUCUCUUUCAACUAAUAAGAGACAUUAUCACGAAACAAUUGUACAUUUCUCUCCUUGUCUGUGCUAAAUAAACUACAAAUAAAAA
Q: Does B1 bind (She2p)?
A: binds

Q: Does B1 bind (Puf6p)?
A: binds

Q: Does B1 bind (She2p (ΔhE);She3p)?
A: no binding

Q: What about the binding signal (She2p (ΔC);She3p) of the same binder?
A: ~5 fold reduced

Q: And the Kd (She2p;She3p)?
A: ~25 nM

Q: Does B1 bind (She2p;She3p (R341E))?
A: binds

Q: Does B1 bind [1]?
A: binds

Q: Does B1 bind [2]?
A: binds

Q: Does B1 bind [3]?
A: binds

From paper PMC3079584, “A Cytoplasmic Complex Mediates Specific mRNA Recognition and Localization in Yeast”
